These results are taken from US20260224629A1 (Memorial Sloan Kettering, published 2026).

The test deals with T1, murine DLL3 (murine, UniProt O88516 33-592).
T1 construct: whole, on cells; Expressed endogenously on the murine SCLC (mSCLC) cell line; also called mDLL3; mouse DLL3
T1 sequence (looked up): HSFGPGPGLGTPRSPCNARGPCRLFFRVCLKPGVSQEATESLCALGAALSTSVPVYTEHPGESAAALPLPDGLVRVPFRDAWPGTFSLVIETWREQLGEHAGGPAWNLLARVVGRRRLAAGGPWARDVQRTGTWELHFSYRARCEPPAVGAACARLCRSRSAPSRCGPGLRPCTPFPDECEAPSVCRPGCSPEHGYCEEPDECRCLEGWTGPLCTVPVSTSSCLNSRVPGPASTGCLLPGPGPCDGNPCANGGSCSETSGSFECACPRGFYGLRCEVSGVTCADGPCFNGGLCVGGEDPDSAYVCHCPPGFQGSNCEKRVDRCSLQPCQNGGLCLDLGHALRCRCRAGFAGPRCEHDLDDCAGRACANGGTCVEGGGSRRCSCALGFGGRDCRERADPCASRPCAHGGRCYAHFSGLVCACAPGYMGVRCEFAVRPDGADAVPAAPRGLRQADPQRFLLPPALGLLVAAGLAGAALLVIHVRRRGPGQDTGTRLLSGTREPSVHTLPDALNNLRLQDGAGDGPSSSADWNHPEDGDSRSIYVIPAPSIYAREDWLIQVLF
Nature of the test: told in words; shown by lysis and IFN-γ release of CAR T cells in coculture with mSCLC cells that express murine DLL3. The procedure:
The CAR consists of the SC16.8 single-chain variable fragment (scFv) and murine CD28 and CD3ζ domains. FIG. 2B measures the IFN-γ levels in supernatant of 24-hour coculture of murine CAR T cells with or without mSCLC cells. **P<0.01, ****P<0.0001 (2-way ANOVA, n=2). FIG. 2C depicts the survival of mice with metastatic mSCLC that were treated with the indicated doses of SC16.8m28mz CAR T cells (day 7) with or without 50 mg/kg cyclophosphamide pretreatment (day 6). **P<0.01 (log-rank test, n=4-6). FIG. 2D is a schematic of CAR design with SC16.8 scFv, murine CD28 and CD3ζ signaling domains, and the murine 1112 fusion transgene or murine 1118 transgene. IRES, internal ribosome entry site. FIG. 2E illustrates IFN-γ production by the respective CAR T cells in the absence and presence of mSCLC cells. *P<0.05, **P<0.01, ***P<0.001, ****P<0.0001 (2-way ANOVA and Student's t test, n=2-3). FIG. 2F depicts a luciferase killing assay with SC16.8 CAR T cells that express IL-12, IL-18, or no cytokine and 4H11 CAR T cells as negative control (n=3). FIGS. 2G and 2H depict serum IFN-γ and TNF-α levels (n=12-15) (2G) and circulating CAR T cells (n=5) (2H) in the blood of mice collected 3 days after treatment with the indicated CAR T cells. **P<0.01, ***P<0.001, ****P<0.0001 (1-way ANOVA). […] FIG. 2J illustrates the survival of mice in FIG. 2I. *P<0.05, ****P<0.0001 (log-rank test). […]

B1: SC16.8m28mz CAR (SC16.8 scFv with Flag-tag, murine CD28 transmembrane and intracellular domain and murine CD3zeta intracellular domain, on murine T cells) (scFv, V domains shown)
VH: QAQLQQSGAELVRPGTSVKVSCKASGYAFTNYLIEWVKQRPGQGLEWIGVINPGTGGTNYNENFKGKATLTADKSSSTAYMQLSSLTSDDSAVYFCARSPYDYHEGAMDYWGQGTSVTVSS
VL: EIQMTQSPSSMSASLGDRITITCQATQDIVKNLNWYQQKPGKPPSFLIYYAIELAEGVPSRFSGSGSGSDYSLTISNLESEDFADYYCLQFYEFPFTFGAGTKLELK
notes: Tested as a membrane CAR on transduced murine T cells; VH and VL are joined as an scFv; also called SC16.8 CAR (murine CAR T cells); the presently disclosed CAR
Regarding B1, the binding result is “binds”.
